Experimental data taken from publication PMC5681266.

Legend:
[1] = target: atypical chemokine receptor 3 (human (endogenous in hPPAEC)) (UniProt P25106)
[2] = target: chemokine (C-X-C) motif receptor (CXCR) 4 (human (endogenous in hPPAEC)) (UniProt P61073)
UniProt P61073, sequence (P61073 whole entry): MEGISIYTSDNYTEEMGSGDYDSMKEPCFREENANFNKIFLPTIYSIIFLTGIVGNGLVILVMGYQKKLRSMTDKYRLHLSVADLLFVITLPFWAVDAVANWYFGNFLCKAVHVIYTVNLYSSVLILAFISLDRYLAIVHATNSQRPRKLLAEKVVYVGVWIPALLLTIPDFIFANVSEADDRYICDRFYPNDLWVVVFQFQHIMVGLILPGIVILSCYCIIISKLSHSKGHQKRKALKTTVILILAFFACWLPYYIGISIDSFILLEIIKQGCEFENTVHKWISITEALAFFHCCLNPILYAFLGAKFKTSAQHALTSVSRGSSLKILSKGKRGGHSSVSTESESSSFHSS

UniProt P25106, sequence (P25106 whole entry): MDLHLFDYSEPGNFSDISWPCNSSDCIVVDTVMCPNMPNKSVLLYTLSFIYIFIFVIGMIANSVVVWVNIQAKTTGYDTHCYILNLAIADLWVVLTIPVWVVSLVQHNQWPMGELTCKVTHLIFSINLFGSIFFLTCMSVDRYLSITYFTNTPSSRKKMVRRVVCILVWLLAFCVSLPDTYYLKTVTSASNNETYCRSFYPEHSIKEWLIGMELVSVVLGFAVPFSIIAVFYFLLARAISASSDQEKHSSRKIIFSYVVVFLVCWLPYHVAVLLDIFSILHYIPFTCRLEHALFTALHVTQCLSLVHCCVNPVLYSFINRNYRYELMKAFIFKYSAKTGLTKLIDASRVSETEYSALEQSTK

In the case of “CXCL12 K27A/R41A/R47A (from UniProt P48061-2 22-89) (ligand)”, the EC50 of β-arrestin 2 recruitment to ACKR3, Presto-Tango (Tango plasmid in HTLA cells) [1] is reported as 1.2 nM, the efficacy (top plateau) of β-arrestin 2 recruitment to ACKR3, Presto-Tango, % of CXCL12α [1] is reported as 83% and the EC50 of β-arrestin 2 recruitment to CXCR4, Presto-Tango (Tango plasmid in HTLA cells) [2] is reported as 145 nM. For the same substance, the efficacy (top plateau) of β-arrestin 2 recruitment to CXCR4, Presto-Tango, % of CXCL12α [2] was 111%.

With “CXCL12 R47E (from UniProt P48061-2 22-89) (ligand)” the EC50 of β-arrestin 2 recruitment to ACKR3, Presto-Tango (Tango plasmid in HTLA cells) [1] was 0.4 nM, the efficacy (top plateau) of β-arrestin 2 recruitment to ACKR3, Presto-Tango, % of CXCL12α [1] was 86% and the EC50 of β-arrestin 2 recruitment to CXCR4, Presto-Tango (Tango plasmid in HTLA cells) [2] was 127 nM. It also gave an efficacy (top plateau) of β-arrestin 2 recruitment to CXCR4, Presto-Tango, % of CXCL12α [2] of 105%.

Work on “CXCL12 S-S4V, a protease resistant mutant (from UniProt P48061-2 22-89) (ligand)” yielded an EC50 of β-arrestin 2 recruitment to ACKR3, Presto-Tango (Tango plasmid in HTLA cells) [1] of 0.7 nM, an efficacy (top plateau) of β-arrestin 2 recruitment to ACKR3, Presto-Tango, % of CXCL12α [1] of 88% and an EC50 of β-arrestin 2 recruitment to CXCR4, Presto-Tango (Tango plasmid in HTLA cells) [2] of 75 nM. It also gave an efficacy (top plateau) of β-arrestin 2 recruitment to CXCR4, Presto-Tango, % of CXCL12α [2] of 117%.

For “CXCL12_(1), engineered constitutively monomeric CXCL12 variant (from UniProt P48061-2 22-89) (ligand)”, the EC50 of β-arrestin 2 recruitment to ACKR3, Presto-Tango (Tango plasmid in HTLA cells) [1] was 5.6 nM, the efficacy (top plateau) of β-arrestin 2 recruitment to ACKR3, Presto-Tango, % of CXCL12α [1] was 98% and the EC50 of β-arrestin 2 recruitment to CXCR4, Presto-Tango (Tango plasmid in HTLA cells) [2] was 27 nM. For the same substance, the efficacy (top plateau) of β-arrestin 2 recruitment to CXCR4, Presto-Tango, % of CXCL12α [2] was 103%.

With “CXCL12_(2), disulfide-locked dimeric CXCL12 variant (from UniProt P48061-2 22-89) (ligand)” the EC50 of β-arrestin 2 recruitment to ACKR3, Presto-Tango (Tango plasmid in HTLA cells) [1] was 8.8 nM, the efficacy (top plateau) of β-arrestin 2 recruitment to ACKR3, Presto-Tango, % of CXCL12α [1] was 87% and the EC50 of β-arrestin 2 recruitment to CXCR4, Presto-Tango (Tango plasmid in HTLA cells) [2] was 2.4 nM. The efficacy (top plateau) of β-arrestin 2 recruitment to CXCR4, Presto-Tango, % of CXCL12α [2] was 90%.

Work on “CXCL12β (from UniProt P48061 22-93) (ligand)” yielded an EC50 of β-arrestin 2 recruitment to ACKR3, Presto-Tango (Tango plasmid in HTLA cells) [1] of 1.5 nM, an efficacy (top plateau) of β-arrestin 2 recruitment to ACKR3, Presto-Tango, % of CXCL12α [1] of 103% and an EC50 of β-arrestin 2 recruitment to CXCR4, Presto-Tango (Tango plasmid in HTLA cells) [2] of 1.4 nM. For the same substance, the efficacy (top plateau) of β-arrestin 2 recruitment to CXCR4, Presto-Tango, % of CXCL12α [2] was 73%.

With “N-terminal truncated CXCL12 (3–68) (from UniProt P48061-2 24-89) (domain or fragment)” the EC50 of β-arrestin 2 recruitment to ACKR3, Presto-Tango (Tango plasmid in HTLA cells) [1] was 13.3 nM, the efficacy (top plateau) of β-arrestin 2 recruitment to ACKR3, Presto-Tango, % of CXCL12α [1] was 19% and the EC50 of β-arrestin 2 recruitment to CXCR4, Presto-Tango (Tango plasmid in HTLA cells) [2] was over 1000 nM.
